Test results as given in publication PMC4578157.

Target: Duffy antigen receptor for chemokines (DARC) (human) (UniProt Q16570)
Assay: SPR

Question: With “HlgC (from UniProt Q07227 30-315) (natural protein)” as the substance, how does the Kd read?
Answer: 229 nM

Question: Which Kd does the source give for “HlgA (from UniProt P0A074 30-309) (natural protein)” here?
Answer: 29.2 nM

Question: For “LukE (from UniProt O54081 29-314) (natural protein)”, which Kd is on record?
Answer: 56.4 nM
